The text below walks through data of patent publication US20250334575A1 (UNIVERSITY OF VERMONT AND STATE AGRICULTURE COLLEGE, published 2025).

Test [1] addresses FcγRIIa (low affinity immunoglobulin gamma Fc region receptor II-a) (human) (UniProt P12318). Put plainly: co-immunoprecipitation with FcγRIIa from activated platelets, mass spectrometry of the excised band.
The target of a further test is activated GP IIb-IIIa (human, UniProt P08514 32-1039; P05106 27-788). The experiment in a line: cell-based or functional assay.
Test [2] addresses FcγRIIa (low affinity immunoglobulin gamma Fc region receptor II-a) (human) (UniProt P12318). Put plainly: cell-based or functional assay.

Chain of FcγRIIa (low affinity immunoglobulin gamma Fc region receptor II-a) (human) (P12318 34-317 limits assumed, form in doubt): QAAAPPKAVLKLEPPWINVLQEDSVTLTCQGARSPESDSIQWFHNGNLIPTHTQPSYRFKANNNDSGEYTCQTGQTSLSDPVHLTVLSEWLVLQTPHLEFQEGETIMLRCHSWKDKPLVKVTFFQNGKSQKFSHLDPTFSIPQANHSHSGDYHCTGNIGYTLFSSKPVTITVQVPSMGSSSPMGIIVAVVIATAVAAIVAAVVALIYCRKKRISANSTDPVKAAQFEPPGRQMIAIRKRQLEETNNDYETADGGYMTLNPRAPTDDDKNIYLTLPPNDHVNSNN
Chain of activated GP IIb-IIIa (P08514 32-1039, chain 1 of 2): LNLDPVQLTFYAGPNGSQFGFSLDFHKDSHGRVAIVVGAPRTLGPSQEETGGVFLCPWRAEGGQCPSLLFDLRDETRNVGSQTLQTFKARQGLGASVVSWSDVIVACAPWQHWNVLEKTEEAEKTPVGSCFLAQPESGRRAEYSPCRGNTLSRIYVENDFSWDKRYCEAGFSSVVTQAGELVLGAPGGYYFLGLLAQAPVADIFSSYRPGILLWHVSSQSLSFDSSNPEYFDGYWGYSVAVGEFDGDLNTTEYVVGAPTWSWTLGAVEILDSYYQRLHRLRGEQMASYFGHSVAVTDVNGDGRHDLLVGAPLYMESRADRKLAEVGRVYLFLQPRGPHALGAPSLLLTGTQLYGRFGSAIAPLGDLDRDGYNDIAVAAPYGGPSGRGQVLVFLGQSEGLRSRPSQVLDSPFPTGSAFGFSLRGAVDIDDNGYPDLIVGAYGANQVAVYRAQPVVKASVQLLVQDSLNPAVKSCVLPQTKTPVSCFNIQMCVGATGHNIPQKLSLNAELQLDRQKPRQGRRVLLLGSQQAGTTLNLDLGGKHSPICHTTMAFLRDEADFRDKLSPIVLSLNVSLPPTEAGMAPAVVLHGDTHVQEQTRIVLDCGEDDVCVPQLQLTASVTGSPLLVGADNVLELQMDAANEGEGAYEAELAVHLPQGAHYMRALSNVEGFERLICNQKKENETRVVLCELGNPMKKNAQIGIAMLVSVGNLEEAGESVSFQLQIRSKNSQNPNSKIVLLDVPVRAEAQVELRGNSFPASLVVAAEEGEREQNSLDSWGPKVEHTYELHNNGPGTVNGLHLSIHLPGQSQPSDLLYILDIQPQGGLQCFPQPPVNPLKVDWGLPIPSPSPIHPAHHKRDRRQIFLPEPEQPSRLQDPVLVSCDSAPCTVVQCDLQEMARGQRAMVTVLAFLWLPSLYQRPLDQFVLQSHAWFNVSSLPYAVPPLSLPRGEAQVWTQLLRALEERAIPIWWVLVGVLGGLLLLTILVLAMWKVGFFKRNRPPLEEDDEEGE
Chain of activated GP IIb-IIIa (P05106 27-788, chain 2 of 2): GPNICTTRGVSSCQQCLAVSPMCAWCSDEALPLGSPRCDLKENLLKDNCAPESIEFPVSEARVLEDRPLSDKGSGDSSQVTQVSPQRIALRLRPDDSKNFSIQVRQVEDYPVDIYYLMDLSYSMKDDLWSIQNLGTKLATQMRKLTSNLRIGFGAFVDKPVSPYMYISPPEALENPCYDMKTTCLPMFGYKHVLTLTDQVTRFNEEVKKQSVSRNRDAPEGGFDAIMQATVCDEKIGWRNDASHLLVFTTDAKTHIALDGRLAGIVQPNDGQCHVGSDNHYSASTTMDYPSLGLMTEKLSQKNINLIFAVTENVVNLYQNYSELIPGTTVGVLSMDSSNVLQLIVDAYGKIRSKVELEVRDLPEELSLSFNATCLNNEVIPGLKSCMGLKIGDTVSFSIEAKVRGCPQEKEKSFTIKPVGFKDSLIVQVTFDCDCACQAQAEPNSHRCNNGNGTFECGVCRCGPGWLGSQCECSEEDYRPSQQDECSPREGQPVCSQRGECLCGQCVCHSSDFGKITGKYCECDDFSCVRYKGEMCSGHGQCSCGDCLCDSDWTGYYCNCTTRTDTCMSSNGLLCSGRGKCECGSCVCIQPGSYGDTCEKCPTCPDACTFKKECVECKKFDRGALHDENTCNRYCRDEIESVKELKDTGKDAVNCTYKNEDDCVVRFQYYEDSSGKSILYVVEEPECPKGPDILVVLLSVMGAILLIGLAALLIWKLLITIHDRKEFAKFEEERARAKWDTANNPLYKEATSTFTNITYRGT

actin: in test [1], the share of the protein content of the 55 kDa band co-immunoprecipitated with FcγRIIa amounted to 3% and the share of the protein content of the 75 kDa band co-immunoprecipitated with FcγRIIa came to 1%.
Take gelsolin (from UniProt P06396 1-731): in test [1], the share of the protein content of the 90 kDa band co-immunoprecipitated with FcγRIIa worked out at 6%.
As for “coagulation Factor V (from UniProt P12259 29-2224)”, the share of the protein content of the 75 kDa band co-immunoprecipitated with FcγRIIa in test [1] was 4%.
In test [1], “SRC kinase Lyn (from UniProt P07948 2-512) (enzyme)” displayed a share of the protein content of the 55 kDa band co-immunoprecipitated with FcγRIIa of 1%.
filamin showed a share of the protein content of the 90 kDa band co-immunoprecipitated with FcγRIIa in test [1] of 1%.
Molecule nexilin (from UniProt Q0ZGT2 1-675) showed a share of the protein content of the 75 kDa band co-immunoprecipitated with FcγRIIa in test [1] of 3%.

B1: coagulation Factor XIII (enzyme, human, UniProt P00488 2-732, looked up)
chain: SETSRTAFGGRRAVPPNNSNAAEDDLPTVELQGVVPRGVNLQEFLNVTSVHLFKERWDTNKVDHHTDKYENNKLIVRRGQSFYVQIDFSRPYDPRRDLFRVEYVIGRYPQENKGTYIPVPIVSELQSGKWGAKIVMREDRSVRLSIQSSPKCIVGKFRMYVAVWTPYGVLRTSRNPETDTYILFNPWCEDDAVYLDNEKEREEYVLNDIGVIFYGEVNDIKTRSWSYGQFEDGILDTCLYVMDRAQMDLSGRGNPIKVSRVGSAMVNAKDDEGVLVGSWDNIYAYGVPPSAWTGSVDILLEYRSSENPVRYGQCWVFAGVFNTFLRCLGIPARIVTNYFSAHDNDANLQMDIFLEEDGNVNSKLTKDSVWNYHCWNEAWMTRPDLPVGFGGWQAVDSTPQENSDGMYRCGPASVQAIKHGHVCFQFDAPFVFAEVNSDLIYITAKKDGTHVVENVDATHIGKLIVTKQIGGDGMMDITDTYKFQEGQEEERLALETALMYGAKKPLNTEGVMKSRSNVDMDFEVENAVLGKDFKLSITFRNNSHNRYTITAYLSANITFYTGVPKAEFKKETFDVTLEPLSFKKEAVLIQAGEYMGQLLEQASLHFFVTARINETRDVLAKQKSTVLTIPEIIIKVRGTQVVGSDMTVTVEFTNPLKETLRNVWVHLDGPGVTRPMKKMFREIRPNSTVQWEEVCRPWVSGHRKLIASMSSDSLRHVYGELDVQIQRRPSM
Consider B1, for which the “fold induction of ADP-induced activation of platelets by added Factor XIII in the presence of tirofiban (0.5 µg/ml)” value in the test with activated GP IIb-IIIa worked out at 0.8 fold. In test [1], the share of the protein content of the 75 kDa band co-immunoprecipitated with FcγRIIa is 38% and the share of the protein content of the 90 kDa band co-immunoprecipitated with FcγRIIa worked out at 1%.

B2: fibrinogen (other, human)
chain 1: ADSGEGDFLAEGGGVRGPRVVERHQSACKDSDWPFCSDEDWNYKCPSGCRMKGLIDEVNQDFTNRINKLKNSLFEYQKNNKDSHSLTTNIMEILRGDFSSANNRDNTYNRVSEDLRSRIEVLKRKVIEKVQHIQLLQKNVRAQLVDMKRLEVDIDIKIRSCRGSCSRALAREVDLKDYEDQQKQLEQVIAKDLLPSRDRQHLPLIKMKPVPDLVPGNFKSQLQKVPPEWKALTDMPQMRMELERPGGNEITRGGSTSYGTGSETESPRNPSSAGSWNSGSSGPGSTGNRNPGSSGTGGTATWKPGSSGPGSTGSWNSGSSGTGSTGNQNPGSPRPGSTGTWNPGSSERGSAGHWTSESSVSGSTGQWHSESGSFRPDSPGSGNARPNNPDWGTFEEVSGNVSPGTRREYHTEKLVTSKGDKELRTGKEKVTSGSTTTTRRSCSKTVTKTVIGPDGHKEVTKEVVTSEDGSDCPEAMDLGTLSGIGTLDGFRHRHPDEAAFFDTASTGKTFPGFFSPMLGEFVSETESRGSESGIFTNTKESSSHHPGIAEFPSRGKSSSYSKQFTSSTSYNRGDSTFESKSYKMADEAGSEADHEGTHSTKRGHAKSRPVRGIHTSPLGKPSLSP
chain 2: QGVNDNEEGFFSARGHRPLDKKREEAPSLRPAPPPISGGGYRARPAKAAATQKKVERKAPDAGGCLHADPDLGVLCPTGCQLQEALLQQERPIRNSVDELNNNVEAVSQTSSSSFQYMYLLKDLWQKRQKQVKDNENVVNEYSSELEKHQLYIDETVNSNIPTNLRVLRSILENLRSKIQKLESDVSAQMEYCRTPCTVSCNIPVVSGKECEEIIRKGGETSEMYLIQPDSSVKPYRVYCDMNTENGGWTVIQNRQDGSVDFGRKWDPYKQGFGNVATNTDGKNYCGLPGEYWLGNDKISQLTRMGPTELLIEMEDWKGDKVKAHYGGFTVQNEANKYQISVNKYRGTAGNALMDGASQLMGENRTMTIHNGMFFSTYDRDNDGWLTSDPRKQCSKEDGGGWWYNRCHAANPNGRYYWGGQYTWDMAKHGTDDGVVWMNWKGSWYSMRKMSMKIRPFFPQQ
chain 3: YVATRDNCCILDERFGSYCPTTCGIADFLSTYQTKVDKDLQSLEDILHQVENKTSEVKQLIKAIQLTYNPDESSKPNMIDAATLKSRKMLEEIMKYEASILTHDSSIRYLQEIYNSNNQKIVNLKEKVAQLEAQCQEPCKDTVQIHDITGKDCQDIANKGAKQSGLYFIKPLKANQQFLVYCEIDGSGNGWTVFQKRLDGSVDFKKNWIQYKEGFGHLSPTGTTEFWLGNEKIHLISTQSAIPYALRVELEDWNGRTSTADYAMFKVGPEADKYRLTYAYFAGGDAGDAFDGFDFGDDPSDKFFTSHNGMQFSTWDNDNDKFEGNCAEQDGSGWWMNKCHAGHLNGVYYQGGTYSKASTPNGYDNGIIWATWKTRWYSMKKTTMKIIPFNRLTIGEGQQHHLGGAKQAGDV
With B2, in the test with activated GP IIb-IIIa, the “fold induction of ADP-induced activation of platelets by added fibrinogen in the presence of tirofiban (0.5 µg/ml)” value is 1.2 fold. Moreover, in test [2], the fold induction of ADP-induced activation of platelets (surface expression of P-selectin) after addition of fibrinogen worked out at 1.5 fold and the fold induction of ADP-induced activation of platelets by added fibrinogen after pretreatment with IV.3 (100 µg/ml) came out at 0.9 fold. In addition, in test [1], the share of the protein content of the 55 kDa band co-immunoprecipitated with FcγRIIa came to 33%, the share of the protein content of the 75 kDa band co-immunoprecipitated with FcγRIIa turned out to be 24% and the share of the protein content of the 90 kDa band co-immunoprecipitated with FcγRIIa is 80%.
